In publication PMC2885190 (The Journal of Biological Chemistry, 2010):
Residue numbers refer to the chain shown, from its start.

B1: A12 mutant 1 (Tyr101 to Ala101) (VHH)
VHH: AVQLVESGGGLVQAGGSLRLSCTASGRISSSYDMGWFRQAPGKEREFVAAISWSGGTTDYADSVKGRFAISKDNAKNAVSLQMNSLKPEDTAVYYCAAKWRPLRYSDYPSNSDYADWGQGTQVTVSS
B2: A12 mutant 3 (Tyr101 to Gln101) (VHH)
VHH: B1 VHH with A115Q
B3: D7 VHH (VHH)
VHH: B1 VHH with V12A, A24V, I28T, Y32H, D59N, Y108N, A115N, D116Y
B4: A12 mutant 2 (Tyr101 to Asn101) (VHH)
VHH: B1 VHH with A115N
B5: mutant 7 of A12/D7 (VHH)
VHH: B1 VHH with V12A, A24V, I28T, Y32H, D59N, Y108N, A115N
B6: A12 VHH (VHH)
VHH: B1 VHH with A115Y

Columns and labels:
[1] = target: T1, Recombinant gp120 from HIV-1 IIIB (HIV-1 IIIB, UniProt P04578); assay: cell-based or functional assay
[2] = target: T1, Recombinant gp120 from HIV-1 IIIB; assay: SPR

Binder	neutralisation of HIV-1 IIIB, TZM-bl luciferase assay, IC50 [1]	Kd [2]	koff [2]	kon [2]
B1	< 1 µg/mL			
B2	< 1 µg/mL			
B3		2.9 nM	0.000551 s⁻¹	155000 M⁻¹ s⁻¹
B4	< 1 µg/mL			
B5	< 1 µg/mL			
B6		0.1 nM	2.98e-05 s⁻¹	273000 M⁻¹ s⁻¹
